Results published in a protein production outcome set (Wang et al. 2014).

Assay: label from the status in PepcDB records
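Note: failed if final PepcDB status was selected cloned or expressed and not failed if soluble or beyond.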

Sequence	protein production
MEITIFGKGNMGQAIGHNFEIAGHEVTYYGSKDQATTLGEIVIMAVPYPALAALAKQYATQLKGKIVVDITNPLNFDTWDDLVVPADSSAAQELQQQLPDSQVLKAFNTTFAATLQSGQVNGKEPTTVLVAGNDDSAKQRFTRALADSPLEVKDAGKLKRARELEAMGFMQMTLAASEQIGWTGGFAVVK	failed
MEIVFLGGAKEVGASCVLIKAGGKNILLDSGIRMKEDKLPNLQLLRELGGADVCLISHAHLDHIGSLPLIAREYPHIFFYTNQPTKDLIKVLLYDSLKIMDAKEDEIPIYAEKNVEDLLDRTITYGFNYTFEPLEGIKVTFFPAGHILGASMIFIQTQEGSVLYTGDFSTDKQLTVDKASIPKIRPDVVICESTYGDRLHTNRNYEEERLFNSIYEFISKGGKVLIPAFAIGRAQEIILILRNYMKKKKVEFNVFIDGMVREVIRVYKNNPTFLSSRYYKKVLKGEEIFLSDNIDIITDKKQREEIMSSSDPCVIISSSGMLTGGPSVFYAEKLVENQNALIAITGYQDEESPGRKLLELTELPESERKIELNGKEYEVKCKVEKYGLSAHADRDSILGFLAMLKPKTVVFAHGSEEAISQLSDMAIKEIESAVLIPQNGEMNTISIEKPRRQLSFFNVKKLSNIEPLNEENIKSLWEYLLESKQEANHITAEHAILIWNGKQFLERDEVNRVFELLKSSPYFEQNPRKPYLFRILSRTEVENKLKPKPMEQNKMRELAFEMFKDFGLYKVGMDNENVVVTFYFNFPHIANRLEDKIKEFEEKTLWKVEVNPNINLTYAQKYLQKLLEDEGVKLLKFSYNPVINAIVVKPNKEFDSMKELCSKFLDETGIELIFDIENKEDCTARLQNKDRMEQNKALLLIDLYFENEKDKVYKKSIKEGGKYIELSFVTPFVAEKYKDKLNELSQKTGWEIRISQTINQVEMVNILKDILAKYNIDLIKNPSIYPSIREVRIKLAGEIDSNIVNEIANEFYDRTGFYLKI	failed
MEKAGMHRTLNYRLRFDIPLVGKDCEYALVQDLPASVYISTDELDDLQRLKRLNAIYPKFVNIEVATERAQPFSVLLRGTPKITESLALPVHFRYHAPSDKRLAATVAIPLPELYLNCPMADSALIENELVARPDKLYCLNAPESRFDENHIKDGQPTTMANLERCNWRRVHVDCQLKMPLRAEIPVGHASAYGPVLCGTILLGWSLALWTIIHSMANTRRINQRLNEQRLLQQKVK	failed
MEKEMEDKEEFDEGEIEYTSYAGEHHLPLIMSLVDQELSEPYSIFTYRYFVYLWPQLCFLAFHKGKCVGTIVCKMGDHRQTFRGYIAMLVVIKPYRGRGIASELVTRAIKAMMESGCEEVTLEAEVSNKGALALYGRLGFIRAKRLYHYYLNGMDAFRLKLLFPKPRVPQIPSQVQTQQEYETFPRPRVP	failed
MEKFMYSLGVSKKDKIYKDLLKIAIPTAIEFFLFNFISLTDNAMVAYLGDYPVAGVSLANKFFELFVTIGFSMAGAYNIIATRQYNQGDFKSFRNTFFISILTIILFSFPFILISIVNPFFLLRLISNDERAVYYGAAYLNIAIFSFVFAIIKGLIANALKVVEIVKFQVYISVFSVLLNFVFNYIFIFVFHMGVVGAAIATTVIRTLELIVYLVCTAFNKNSILHFKLDDLNINIKPFAQLIKFFIPILLNEFAWFFGYLVLTSIFIGIDTHKYAAYSISFSIYFIIFNIIHSFCISLNIMMGYEMHNSKKEIMKVAIYLSKIGLKLAFLTSFVLFIFSFFAPYIFYTLKYSHLIGIILRYSSVSAFFMALAFQYLFGFFRAGASPSFGAIMEGSVTFVYTIPIAFVLANYTNLPFEIIVFIPSLEDAIKLVVSLPYFYSERWIKSV	failed
MEKILDLLMSFVKEDEGKLDLASFPLRNTTAGAHLLLKTENVVASGIEVSRMFLEKMGLLSKFNVEDGEYLEGTGVIGEIEGNTYKLLVAERTLLNVLSVMFSVATTTRRFAEKLKHAKIAATRKILPGLGVLQKIAVVHGGGDPHRLDLSGCVMIKDNHLKMYGSAERAVQEVRKIIPFTTKIEVEVENLEDALRAVEAGADIVMLDNLSPEEVKDISRRIKDINPNVIVEVSGGITEENVSLYDFETVDVISSSRLTLQEVFVDLSLEIQR	not failed
MEKILDNIDKSMNIIISLFTIYNLIRGFWLNKNKKQLEKQREDLQKKLHQQNISNNNNISNSFNTTIHNETNIKNEIIDINQDLKNTLKSRNTSRNIAYIFTIFLFVLSFILYVIHYFKEQFKGYTIADFINSFIPSFEKLTDILTISYKSAIIVLLIINLIIAVLVILISMLKLKLKWRVAVSSLLYGILNYYVLISASSIDSKDIHYSIQEPKLSFIISFLYLMVGFITAFFSNYILYSYLFNSEFEDELFNQTIKRFFIWLALTVLFAFLSFINYHNGLQITLNFIKNLLNLI	failed
MEKKLKRRESMSTTAAESPPAKRRRTVTGNENSALIEGLPDHISEICLSLVHRPSLLSAVCTRWRRLLYSPEFPSFPSLYALFVDSTSDTGRVNPSVRFMCFNPVSSKWYPLPPPPPDPPLHRILYRHPSFISFNLPIQCVSAAGKLILIAGSNQQLSPAISHPLIFDPISSSWSSGPRIGSPRRWCATGACDGAIYIASGISSQFSSTVAKSVEKLDLTEQNRNNHRFNWEKLRDMRDLRFSREAIDAVGYRRKLLMVNVKGDAVKEGAIYDVVKDDWEPMPEEMLVGWRGPVAAMEEEILYSVDERRGTVRKYDDEKREWREVVVVEGGEEMLKGATQVTADSGKLCVVTGDGKIVVVDVAAEPAKIWNVEIPDGLEPVSVHVLPRMSQPNFC	failed
MEKKYIMFIIAMAISFLTTPIVRKFAKHIKAIDIPKDKRRVHKKPIPKIGGLAIYLAFVLVLVLKKGHLEKAEMGIIFGGGIIVLGGFIDDLKCLRPLYKVLFQLLGAFVLIGFGLRISMVTNPLSNSFSYIHINNFIGIAITIIWIIGVTNAFNLIDGLDGLSAGVGFISSVTIAIVAFLNGPTRSEAEILSVILAGSILGFLPYNFNPASIFMGDTGAQFLGFALAAISIQGAIKSASAVVLAVPILVLGLPIYDTIFAIIRRKINGKPITQADRGHLHHRLLDMGLSQKQAVLIMYFISAIMGLVAVIAMQLTNTKAYVIFAGAVICIVGLAWKFGLFKHK	failed
MEKLGAVLFDDPNLSMNRTMACSTCHMQAAGFSDARESEKVGRDVSLGDDGISLGDRNAPTAAYAKFTPPFGKNAAGEYIGGQFWDGRASLLEDQAGGPPLNPVEMGMPDKAAVVKRLRENPDYVAAFGTQFGKDVFASDESAYAAMTKALASFERSDEFSTFDSKYDRFLRGEEKLTDQEELGRVLISSTQFTNCNTCHEIRGAKGLEDGLFTNHKYFNIGVPANTSVRAVNGSKPDAVDLGLAQNPAVAGDPAQRGKFKVPTLRNVAVTGPYMHNGVFKDLRTVVLFYVKYKSKKPSRQINPETGKTWDAPEVPENIAMTELTSAPALDDKRVDAIVAFLKTLTDRRYEHLLPKEDGQTAAPTAQPVLSVTPKAP	failed
MEKLTTLTGVAVPLRRSNVDTDQIIPAVFLKRVKKSGFDDALFYAWRRDPEFVLNKPEYKQGKILVAGPDFGIGSSREHAVWALHDYGFRVVISSRFADIFYGNTAKNGVLAAIMPQESIELLWKLLDEEPGREMTVSLEDRTVTCGDVTLPFEVNDYTRWRLMNGYDDIDLTLQHEDDIIAYEKMRAEKFPFKPKTLPVKREPEQPIESAREGEYPDWQGPLADRGII	failed
MEKMYNVGKIVNTHGLIGEIRVIATTDFPEERFQVGNTVYLFEKNSKKPEKLIIRSHRKHKNFDLLMFEGLTGIHQVERMKEGVLKIKEAQLTDLEENEFYFHEIIGTVVTTDGEELGEITEILTPGANDVWVVKGADKKEKLIPYIADVVKDINTNDKKITIEVMEGLLDLEHHHHHH	failed
MEKNFILSVGMSVMFLFISSIKTVQAQQLGIGVKTELNGKVRFCNYDEAYFMPDTNTRIKVTGLEIAYDSSLNYYDIFVNVKGDKVNLHIKYSNGGEGAYIYKGIDRISKMDVVVTTKKKLSLYANNYGVNSYKEVESSVGIIIVFPKTYMISSIVPIKNKVETVNELSTQLRKGVITDSDGYTNIRKSNSVNSEIIGKIVDREVFTYWETNDNWYIVQTAKGIKGYVHKSRIKPVEERNEQKIRYYKVKNGDKIQDIAEKLGVSIDTICKLNRVKITTVLREGQALRISR	failed
MEKNQSDDDGTALIFLGTGCSGAVPDFRCLLQPSDPPCHVCSQSLSLLPHLNPNYRCNTSLLIDYCSKEEDGRHKYILIDVGKSFREQIILTHEHADAVHGLDEIRSLQPRGATIVDTDPLPVFLSQFTMESIATRFPYLVEKKVKEVPRRVSLLDWKNIEENCDEPFAASGLSFTPLPVMHGEDYIALGFLFGDKSKVAYISDVSRIPPSTEYAISKAGAGQLDLLILDTNIPWKRGPHPTHICFTEALEILKRLCPKRALLTGMTHEFDHHEYNEILAEWSLRDYVDF	failed
